From patent publication US20180179276A1 (NEURIMMUNE, published 2018)

Molecular target: pathological Aβ deposits in a human brain with Alzheimer's disease (human, UniProt P05067 672-713)
Test: not described (human Alzheimer brain tissue)

Chain of pathological Aβ deposits in a human brain with Alzheimer's disease (P05067 672-713): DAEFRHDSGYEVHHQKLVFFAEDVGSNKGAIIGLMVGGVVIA

binding result: no binding
B1: antibody NI-203.26C11 (constant region as tested not stated) (antibody, V domains shown)
VH: QVQLQESGPGLVKPSQTLSLTCTVSGGSISSGNYYWTWIRQPAGKGLEWIGHIYSSGTTNYNPSLESRVTISVDTSKNQFSLSLNSVTAADTAVYYCARPLATVPDAFNIWGQGTMVTVSS
VL: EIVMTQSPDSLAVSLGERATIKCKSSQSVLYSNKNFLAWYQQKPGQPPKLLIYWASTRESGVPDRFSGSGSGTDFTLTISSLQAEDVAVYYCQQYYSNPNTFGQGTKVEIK
notes: also called anti-hIAPP antibody
